The results in this text go back to the supplement of paper PMC5998384.

The test system of data set [1] is HeLa Kyoto. The experiment in a line: solubility in G1/S (NP-40 vs SDS abundance) (log2 ratio); higher = more soluble. The note with it: cell cycle stage: G1/S.
For data set [2], the system named is HeLa Kyoto. Kind of data set: melting temperature (median over replicates), in situ; higher = more thermally stable.
Data set [3] relates to HeLa Kyoto. Kind of data set: solubility change mitosis vs G1/S (difference of NP-40 vs SDS log2 ratios) (log2 ratio difference); higher = more soluble in mitosis.
Data set [4] deals with HeLa Kyoto. Kind of data set: thermal stability score vs G1/S (z-score of summed log2 fold changes over temperatures); higher = more thermally stable than in G1/S.
[5] abbreviates: cell cycle stage: early G1 (4.5 h after nocodazole release).
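Throughout, for melting temperature (median over replicates), in situ: HeLa Kyoto cells synchronized by double thymidine or nocodazole block, proteins quantified by TMT10plex mass spectrometry, three independent biological replicates.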
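Throughout, for solubility change mitosis vs G1/S (difference of NP-40 vs SDS log2 ratios): synchronized HeLa Kyoto cells (double thymidine block for G1/S, nocodazole release for mitosis), protein amounts in NP-40 versus SDS lysates quantified by mass spectrometry, three biological replicates.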
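Throughout, for solubility in G1/S (NP-40 vs SDS abundance): HeLa Kyoto cells arrested at G1/S by double thymidine block, proteins quantified by TMT10plex mass spectrometry in mild NP-40 versus SDS extracts, three biological replicates.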
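Throughout, for thermal stability score vs G1/S (z-score of summed log2 fold changes over temperatures): synchronized HeLa Kyoto cells, proteins quantified by TMT10plex mass spectrometry, three biological replicates, mitosis taken 0.5 h after nocodazole release, G1/S directly after double thymidine block.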

As for “MADDIDIEAMLEAPYKKDENKLSSANGHEERSKKRKKSKSRSRSHERKRSKSKERKRSRDRERKKSKSRERKRSRSKERRRSRSRSRDRRFRGRYRSPYSGPKFNSAIRGKIGLPHSIKLSRRRSRSKSPFRKDKSPVREPIDNLTPEERDARTVFCMQLAARIRPRDLEEFFSTVGKVRDVRMISDRNSRRSKGIAYVEFVDVSSVPLAIGLTGQRVLGVPIIVQASQAEKNRAAAMANNLQKGSAGPMRLYVGSLHFNITEDMLRGIFEPFGRIESIQLMMDSETGRSKGYGFITFSDSECAKKALEQLNGFELAGRPMKVGHVTERTDASSASSFLDSDELERTGIDLGTTGRLQLMARLAEGTGLQIPPAAQQALQMSGSLAFGAVAEFSFVIDLQTRLSQQTEASALAAAASVQPLATQCFQLSNMFNPQTEEEVGWDTEIKDDVIEECNKHGGVIHIYVDKNSAQGNVYVKCPSIAAAIAAVNALHGRWFAGKMITAAYVPLPTYHNLFPDSMTATQLLVPSRR [RBM39]”, in the data set on HeLa Kyoto [1], the “solubility in G1/S (log2)” value was -1.07. The melting temperature was determined as 47.2 °C in the data set on HeLa Kyoto [2] (cell cycle stage: G1/S) and 49.3 °C in the data set on HeLa Kyoto [2] (cell cycle stage: mitosis). Besides, the “solubility change mitosis (log2)” value with HeLa Kyoto [3] is 0.531. Besides, the thermal stability score with HeLa Kyoto [4] (setting [5]) was 1.15; in the data set with HeLa Kyoto [4] (cell cycle stage: mitosis) it was 5.82.
For the sequence “MLTKFETKSARVKGLSFHPKRPWILTSLHNGVIQLWDYRMCTLIDKFDEHDGPVRGIDFHKQQPLFVSGGDDYKIKVWNYKLRRCLFTLLGHLDYIRTTFFHHEYPWILSASDDQTIRVWNWQSRTCVCVLTGHNHYVMCAQFHPTEDLVVSASLDQTVRVWDISGLRKKNLSPGAVESDVRGITGVDLFGTTDAVVKHVLEGHDRGVNWAAFHPTMPLIVSGADDRQVKIWRMNESKAWEVDTCRGHYNNVSCAVFHPRQELILSNSEDKSIRVWDMSKRTGVQTFRRDHDRFWVLAAHPNLNLFAAGHDGGMIVFKLERERPAYAVHGNMLHYVKDRFLRQLDFNSSKDVAVMQLRSGSKFPVFNMSYNPAENAVLLCTRASNLENSTYDLYTIPKDADSQNPDAPEGKRSSGLTAVWVARNRFAVLDRMHSLLIKNLKNEITKKVQVPNCDEIFYAGTGNLLLRDADSITLFDVQQKRTLASVKISKVKYVIWSADMSHVALLAKHAIVICNRKLDALCNIHENIRVKSGAWDESGVFIYTTSNHIKYAVTTGDHGIIRTLDLPIYVTRVKGNNVYCLDRECRPRVLTIDPTEFKFKLALINRKYDEVLHMVRNAKLVGQSIIAYLQKKGYPEVALHFVKDEKTRFSLALECGNIEIALEAAKALDDKNCWEKLGEVALLQGNHQIVEMCYQRTKNFDKLSFLYLITGNLEKLRKMMKIAEIRKDMSGHYQNALYLGDVSERVRILKNCGQKSLAYLTAATHGLDEEAESLKETFDPEKETIPDIDPNAKLLQPPAPIMPLDTNWPLLTVSKGFFEGTIASKGKGGALAADIDIDTVGTEGWGEDAELQLDEDGFVEATEGLGDDALGKGQEEGGGWDVEEDLELPPELDISPGAAGGAEDGFFVPPTKGTSPTQIWCNNSQLPVDHILAGSFETAMRLLHDQVGVIQFGPYKQLFLQTYARGRTTYQALPCLPSMYGYPNRNWKDAGLKNGVPAVGLKLNDLIQRLQLCYQLTTVGKFEEAVEKFRSILLSVPLLVVDNKQEIAEAQQLITICREYIVGLSVETERKKLPKETLEQQKRICEMAAYFTHSNLQPVHMILVLRTALNLFFKLKNFKTAATFARRLLELGPKPEVAQQTRKILSACEKNPTDAYQLNYDMHNPFDICAASYRPIYRGKPVEKCPLSGACYSPEFKGQICRVTTVTEIGKDVIGLRISPLQFR [COPA]”, the “solubility in G1/S (log2)” value with HeLa Kyoto [1] is -0.365. The melting temperature in the data set with HeLa Kyoto [2] (cell cycle stage: G1/S) amounted to 51 °C; with HeLa Kyoto [2] (cell cycle stage: mitosis), 50.3 °C. In addition, in the data set with HeLa Kyoto [3], the “solubility change mitosis (log2)” value is -0.16. Also, the thermal stability score in the data set on HeLa Kyoto [4] (setting [5]) was -0.819; in the data set on HeLa Kyoto [4] (cell cycle stage: mitosis), -0.346.
Take “MADTTPNGPQGAGAVQFMMTNKLDTAMWLSRLFTVYCSALFVLPLLGLHEAASFYQRALLANALTSALRLHQRLPHFQLSRAFLAQALLEDSCHYLLYSLIFVNSYPVTMSIFPVLLFSLLHAATYTKKVLDARGSNSLPLLRSVLDKLSANQQNILKFIACNEIFLMPATVFMLFSGQGSLLQPFIYYRFLTLRYSSRRNPYCRTLFNELRIVVEHIIMKPACPLFVRRLCLQSIAFISRLAPTVP [TMEM33]”: the “solubility in G1/S (log2)” value in the data set with HeLa Kyoto [1] turned out to be 0.0522. For the same sequence, the results for the melting temperature in the data set on HeLa Kyoto [2] (cell cycle stage: G1/S) and in the data set on HeLa Kyoto [2] (cell cycle stage: mitosis) were 55 °C and 53.5 °C, respectively. Also, the “solubility change mitosis (log2)” value in the data set on HeLa Kyoto [3] is -0.177. The thermal stability score with HeLa Kyoto [4] (setting [5]) turned out to be 2.25; in the data set on HeLa Kyoto [4] (cell cycle stage: mitosis), 2.45.
Take “MATELEYESVLCVKPDVSVYRIPPRASNRGYRASDWKLDQPDWTGRLRITSKGKTAYIKLEDKVSGELFAQAPVEQYPGIAVETVTDSSRYFVIRIQDGTGRSAFIGIGFTDRGDAFDFNVSLQDHFKWVKQESEISKESQEMDARPKLDLGFKEGQTIKLCIGNITNKKGGASKPRTARGGGLSLLPPPPGGKVTIPPPSSSVAISNHVTPPPIPKSNHGGSDADILLDLDSPAPVTTPAPTPVSVSNDLWGDFSTASSSVPNQAPQPSNWVQF [NECAP1]”: the “solubility in G1/S (log2)” value in the data set on HeLa Kyoto [1] was determined as 0.521. For the same sequence, the figures for the melting temperature in the data set with HeLa Kyoto [2] (cell cycle stage: G1/S) and in the data set with HeLa Kyoto [2] (cell cycle stage: mitosis) were 51.5 °C and 52.4 °C, respectively. The “solubility change mitosis (log2)” value in the data set with HeLa Kyoto [3] was -0.274. For the same sequence, the thermal stability score in the data set on HeLa Kyoto [4] (setting [5]) stood at 0.202; with HeLa Kyoto [4] (cell cycle stage: mitosis) it was 0.108.
“MPKFKAARGVGGQEKHAPLADQILAGNAVRAGVREKRRGRGTGEAEEEYVGPRLSRRILQQARQQQEELEAEHGTGDKPAAPRERTTRLGPRMPQDGSDDEDEEWPTLEKAATMTAAGHHAEVVVDPEDERAIEMFMNKNPPARRTLADIIMEKLTEKQTEVETVMSEVSGFPMPQLDPRVLEVYRGVREVLSKYRSGKLPKAFKIIPALSNWEQILYVTEPEAWTAAAMYQATRIFASNLKERMAQRFYNLVLLPRVRDDVAEYKRLNFHLYMALKKALFKPGAWFKGILIPLCESGTCTLREAIIVGSIITKCSIPVLHSSAAMLKIAEMEYSGANSIFLRLLLDKKYALPYRVLDALVFHFLGFRTEKRELPVLWHQCLLTLVQRYKADLATDQKEALLELLRLQPHPQLSPEIRRELQSAVPRDVEDVPITVE [BYSL]”: the “solubility in G1/S (log2)” value with HeLa Kyoto [1] is -0.343. Moreover, the melting temperature is 48.3 °C with HeLa Kyoto [2] (cell cycle stage: G1/S) and 49 °C in the data set with HeLa Kyoto [2] (cell cycle stage: mitosis). In addition, in the data set with HeLa Kyoto [3], the “solubility change mitosis (log2)” value came out at 0.115. For the same sequence, the thermal stability score with HeLa Kyoto [4] (setting [5]) was determined as 1.85; with HeLa Kyoto [4] (cell cycle stage: mitosis), 5.44.
As for “MPRARKGNTLRKGGQRRGGGARSSAQADSGSSDDEAASEARSTASECPSLLSTTAEDSLGGDVVDEQGQQEDLEEKLKEYVDCLTDKSAKTRQGALESLRLALASRLLPDFLLERRLTLADALEKCLKKGKGEEQALAAAVLGLLCVQLGPGPKGEELFHSLQPLLVSVLSDSTASPAARLHCASALGLGCYVAAADIQDLVSCLACLESVFSRFYGLGGSSTSPVVPASLHGLLSAALQAWALLLTICPSTQISHILDRQLPRLPQLLSSESVNLRIAAGETIALLFELARDLEEEFVYEDMEALCSVLRTLATDSNKYRAKADRRRQRSTFRAVLHSVEGGECEEEIVRFGFEVLYMDSWARHRIYAAFKEVLGSGMHHHLQNNELLRDIFGLGPVLLLDATALKACKVPRFEKHLYNAAAFKARTKARSRVRDKRADIL [IFRD2]”, the “solubility in G1/S (log2)” value with HeLa Kyoto [1] is -0.734. Moreover, the melting temperature is 56.3 °C with HeLa Kyoto [2] (cell cycle stage: G1/S) and 54.5 °C in the data set on HeLa Kyoto [2] (cell cycle stage: mitosis). Besides, the “solubility change mitosis (log2)” value in the data set with HeLa Kyoto [3] came to 0.211. Besides, the values for the thermal stability score in the data set on HeLa Kyoto [4] (setting [5]) and with HeLa Kyoto [4] (cell cycle stage: mitosis) were -2.6 and -1.01, respectively.
